From IntAct's records for PubMed 16438971 come the findings set out here.

B1: Calcium-dependent protein kinase 11 (Arabidopsis thaliana (Mouse-ear cress)), Q39016 (parent)
chain: METKPNPRRPSNTVLPYQTPRLRDHYLLGKKLGQGQFGTTYLCTEKSTSANYACKSIPKRKLVCREDYEDVWREIQIMHHLSEHPNVVRIKGTYEDSVFVHIVMEVCEGGELFDRIVSKGHFSEREAVKLIKTILGVVEACHSLGVMHRDLKPENFLFDSPKDDAKLKATDFGLSVFYKPGQYLYDVVGSPYYVAPEVLKKCYGPEIDVWSAGVILYILLSGVPPFWAETESGIFRQILQGKLDFKSDPWPTISEAAKDLIYKMLERSPKKRISAHEALCHPWIVDEQAAPDKPLDPAVLSRLKQFSQMNKIKKMALRVIAERLSEEEIGGLKELFKMIDTDNSGTITFEELKAGLKRVGSELMESEIKSLMDAADIDNSGTIDYGEFLAATLHMNKMEREENLVAAFSYFDKDGSGYITIDELQSACTEFGLCDTPLDDMIKEIDLDNDGKIDFSEFTAMMRKGDGVGRSRTMMKNLNFNIADAFGVDGEKSDD
partner: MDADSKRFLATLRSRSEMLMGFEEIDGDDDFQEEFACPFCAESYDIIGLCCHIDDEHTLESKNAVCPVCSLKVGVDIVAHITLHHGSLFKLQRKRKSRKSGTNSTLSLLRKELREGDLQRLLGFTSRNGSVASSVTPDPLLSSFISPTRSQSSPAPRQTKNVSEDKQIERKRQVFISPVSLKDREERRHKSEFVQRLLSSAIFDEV
B2: Protein …ON-INDUCED 19 (Arabidopsis thaliana (Mouse-ear cress)), Q39083 (parent)
chain: B1 partner
partner: B1 chain

Variants of B1 are the subject of the first test. The note with it: with di191_arath DI19-1, Q39083.
Take METKPNPRRPSNTVLPYQTPRLRDHYLLGKKLGQGQFGTTYLCTEKSTSANYACKSIPKRKLVCREDYEDVWREIQIMHHLSEHPNVVRIKGTYEDSVFVHIVMEVCEGGELFDRIVSKGHFSEREAVKLIKTILGVVEACHSLGVMHRALKPENFLFDSPKDDAKLKATDFGLSVFYKPGQYLYDVVGSPYYVAPEVLKKCYGPEIDVWSAGVILYILLSGVPPFWAETESGIFRQILQGKLDFKSDPWPTISEAAKDLIYKMLERSPKKRISAHEALCHPWIVDEQAAPDKPLDPAVLSRLKQASQMNKIKKMALRVIAERLSEEEIGGLKELFKMIDTDNSGTITFEELKAGLKRVGSELMESEIKSLMDAADIDNSGTIDYGEFLAATLHMNKMEREENLVAAFSYFDKDGSGYITIDELQSACTEFGLCDTPLDDMIKEIDLDNDGKIDFSEFTAMMRKGDGVGRSRTMMKNLNFNIADAFGVDGEKSDD [D150A;F306A]: the “effect of a mutation on the interaction” value is “increasing interaction”.

In the case of METKPNPRRPSNTVLPYQTPRLRDHYLLGKKLGQGQFGTTYLCTEKSTSANYACKSIPKRKLVCREDYEDVWREIQIMHHLSEHPNVVRIKGTYEDSVFVHIVMEVCEGGELFDRIVSKGHFSEREAVKLIKTILGVVEACHSLGVMHRDLKPENFLFDSPKDDAKLKATAFGLSVFYKPGQYLYDVVGSPYYVAPEVLKKCYGPEIDVWSAGVILYILLSGVPPFWAETESGIFRQILQGKLDFKSDPWPTISEAAKDLIYKMLERSPKKRISAHEALCHPWIVDEQAAPDKPLDPAVLSRLKQASQMNKIKKMALRVIAERLSEEEIGGLKELFKMIDTDNSGTITFEELKAGLKRVGSELMESEIKSLMDAADIDNSGTIDYGEFLAATLHMNKMEREENLVAAFSYFDKDGSGYITIDELQSACTEFGLCDTPLDDMIKEIDLDNDGKIDFSEFTAMMRKGDGVGRSRTMMKNLNFNIADAFGVDGEKSDD [D171A;F306A], the “effect of a mutation on the interaction” value was “increasing interaction”.

Variants of B1 are the subject of a further test. The note with it: with di191_arath DI19-1, Q39083. This is another data set of the same source.
Consider METKPNPRRPSNTVLPYQTPRLRDHYLLGKKLGQGQFGTTYLCTEKSTSANYACKSIPKRKLVCREDYEDVWREIQIMHHLSEHPNVVRIKGTYEDSVFVHIVMEVCEGGELFDRIVSKGHFSEREAVKLIKTILGVVEACHSLGVMHRDLKPENFLFDSPKDDAKLKATDFGLSVFYKPGQYLYDVVGSPYYVAPEVLKKCYGPEIDVWSAGVILYILLSGVPPFWAETESGIFRQILQGKLDFKSDPWPTISEAAKDLIYKMLERSPKKRISAHEALCHPWIVDEQAAPDKPLDPAVLSRLKQASQMNKIKKMALRVIAERLSEEEIGGLKELFKMIDTDNSGTITFEELKAGLKRVGSELMESEIKSLMDAADIDNSGTIDYGEFLAATLHMNKMEREENLVAAFSYFDKDGSGYITIDELQSACTEFGLCDTPLDDMIKEIDLDNDGKIDFSEFTAMMRKGDGVGRSRTMMKNLNFNIADAFGVDGEKSDD [F306A], for which the “effect of a mutation on the interaction” value is on record as “increasing interaction”.

The variants in a further test derive from B1. The note with it: with di191_arath DI19-1, Q39083. This is another data set of the same source.
Turning to METKPNPRRPSNTVLPYQTPRLRDHYLLGKKLGQGQFGTTYLCTEKSTSANYACKSIPKRKLVCREDYEDVWREIQIMHHLSEHPNVVRIKGTYEDSVFVHIVMEVCEGGELFDRIVSKGHFSEREAVKLIKTILGVVEACHSLGVMHRALKPENFLFDSPKDDAKLKATDFGLSVFYKPGQYLYDVVGSPYYVAPEVLKKCYGPEIDVWSAGVILYILLSGVPPFWAETESGIFRQILQGKLDFKSDPWPTISEAAKDLIYKMLERSPKKRISAHEALCHPWIVDEQAAPDKPLDPAVLSRLKQFSQMNKIKKMALRVIAERLSEEEIGGLKELFKMIDTDNSGTITFEELKAGLKRVGSELMESEIKSLMDAADIDNSGTIDYGEFLAATLHMNKMEREENLVAAFSYFDKDGSGYITIDELQSACTEFGLCDTPLDDMIKEIDLDNDGKIDFSEFTAMMRKGDGVGRSRTMMKNLNFNIADAFGVDGEKSDD [D150A], the “effect of a mutation on the interaction” value is given as “increasing interaction”.

Variants of B1 are the subject of a further test. The note with it: with di191_arath DI19-1, Q39083. The source holds these as a separate data set.
Consider METKPNPRRPSNTVLPYQTPRLRDHYLLGKKLGQGQFGTTYLCTEKSTSANYACKSIPKRKLVCREDYEDVWREIQIMHHLSEHPNVVRIKGTYEDSVFVHIVMEVCEGGELFDRIVSKGHFSEREAVKLIKTILGVVEACHSLGVMHRALKPENFLFDSPKDDAKLKATDFGLSVFYKPGQYLYDVVGSPYYVAPEVLKKCYGPEIDVWSAGVILYILLSGVPPFWAETESGIFRQILQGKLDFKSDPWPTISEAAKDLIYKMLERSPKKRISAHEALCHPWIVDEQAAPDKPLDPAVLSRLKQFSQMNKIKKMALRVIAERLSEEEIGGLKELFKMIDTDNSGTITFEELKAGLKRVGSELMESEIKSLMDAADIDNSGTIDYGEFLAATLHMNKMEREENLVAAFSYFDKDGSGYITIDELQSACTEFGLCDTPLDDMIKEIDLDNDGKIDFSEFTAMMRKGDGVGRSRTMMKNLNFNIADAFGVDGEKSDD [D150A], for which the “effect of a mutation on the interaction” value is “disrupting interaction”.

In the next test the parent is B2. The note with it: with cdpkb_arath CPK11, Q39016.
Turning to MDADSKRFLATLRSRSEMLMGFEEIDGDDDFQEEFACPFCAESYDIIGLCCHIDDEHTLESKNAVCPVCSLKVGVDIVAHITLHHGSLFKLQRKRKSRKSGTNSTLALLRKELREGDLQRLLGFTSRNGSVASSVTPDPLLSSFISPTRSQSSPAPRQTKNVSEDKQIERKRQVFISPVSLKDREERRHKSEFVQRLLSSAIFDEV [S107A], the “effect of a mutation on the interaction” value is listed as “decreasing interaction”.

As to MDADSKRFLATLRSRSEMLMGFEEIDGDDDFQEEFACPFCAESYDIIGLCCHIDDEHTLESKNAVCPVCSLKVGVDIVAHITLHHGSLFKLQRKRKSRKSGTNSALSLLRKELREGDLQRLLGFTSRNGSVASSVTPDPLLSSFISPTRSQSSPAPRQTKNVSEDKQIERKRQVFISPVSLKDREERRHKSEFVQRLLSSAIFDEV [T105A], the “effect of a mutation on the interaction” value is given as “decreasing interaction”.
